Test results: the supplement of paper PMC10126150
± gives the standard deviation of the averaged measurements.

System: ATP
Test: switch fluorescence ratio, 500 uM ATP over buffer (Cy3 cluster intensity, sum of 5 cycles each) (fold (ratio)); higher = stronger signal-on switching upon ATP binding; sequences stand for … in TCGTCGGCAGCGTCAGATGTGTATAAGAGACAGTTTTTTTTTTTTTTTTTTTTTTTTT…TC
Conditions: aptamer strand: ATP DNA aptamer (quencher-CACCTGGGGGAGTATTGCGGAGGAAGG + anchor), 100 nM annealed; ATP concentration: 500 uM
Summary of the method: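 Exposure to 500 uM ATP lasted 15 min at 22 °C before imaging, and a selection-buffer image was taken beforehand, for Cy3-labelled switching-strand clusters on a modified Illumina MiSeq flow-cell annealed to 100 nM quencher-labelled ATP aptamer. Five buffer/ATP cycles were run with NaOH stripping and re-annealing between them. The fluorescence ratio per cluster is summed target-cycle over summed buffer-cycle Cy3 intensity, averaged per switch-domain sequence. Clusters outside 100-1000 RFU were excluded.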

| Sequence | switch fluorescence ratio |
| --- | --- |
| CGGGCAGAGG | 0.993 ± 0.01 |
| CGGGCAGCTG | 1.04 ± 0.048 |
| CGGGCAGGGC | 1.04 ± 0.019 |
| CGGGCCCGTA | 0.961 ± 0.094 |
| CGGGCCGACT | 1.01 ± 0.039 |
| CGGGCCTCCG | 1.152 ± 0.0046 |
| CGGGCGAATT | 0.982 ± 0.014 |
| CGGGCGATGG | 1.08 ± 0.017 |
| CGGGCGCACT | 1.06 ± 0.037 |
| CGGGCGCTGA | 0.9837 ± 0.004 |
| CGGGCGGCGG | 0.9921 ± 0.0076 |
| CGGGCTCAAC | 1.033 ± 0.0071 |
| CGGGCTGAAT | 0.987 ± 0.025 |
| CGGGCTGGAA | 1.004 ± 0.0086 |
| CGGGCTGTTT | 0.977 ± 0.013 |
| CGGGCTTAAA | 1 ± 0.018 |
| CGGGGAAGGA | 1.016 ± 0.006 |
| CGGGGAAGGC | 1.13 ± 0.065 |
| CGGGGAATAG | 1.16 ± 0.094 |
| CGGGGAGGCG | 0.982 ± 0.079 |
| CGGGGAGGGC | 1.04 ± 0.071 |
| CGGGGAGTGT | 1 ± 0.043 |
| CGGGGCATAT | 1.13 ± 0.085 |

| Sequence | switch fluorescence ratio |
| --- | --- |
| CGGGGCCTAG | 1.01 ± 0.058 |
| CGGGGCGCGA | 1.1 ± 0.049 |
| CGGGGCGGCA | 0.998 ± 0.032 |
| CGGGGCGTCA | 0.978 ± 0.032 |
| CGGGGCTAGG | 0.992 ± 0.017 |
| CGGGGCTCCT | 0.995 ± 0.036 |
| CGGGGCTGGA | 0.984 ± 0.017 |
| CGGGGGAAAC | 0.977 ± 0.015 |
| CGGGGGACT | 1.61 ± 0.85 |
| CGGGGGAGAG | 0.9847 ± 0.009 |
| CGGGGGATAG | 1.06 ± 0.074 |
| CGGGGGATCC | 1.13 ± 0.16 |
| CGGGGGATCT | 1.01 ± 0.038 |
| CGGGGGCAGT | 1.006 ± 0.0067 |
| CGGGGGCTCC | 1.02 ± 0.021 |
| CGGGGGCTT | 1.002 ± 0.0044 |
| CGGGGGGATC | 1.02 ± 0.058 |
| CGGGGGGCGG | 0.986 ± 0.032 |
| CGGGGGGGGT | 1.01 ± 0.031 |
| CGGGGGGTTC | 1 ± 0.019 |
| CGGGGGTGGG | 1.01 ± 0.047 |
| CGGGGGTTAT | 1.03 ± 0.063 |
| CGGGGTAAGG | 0.988 ± 0.024 |

| Sequence | switch fluorescence ratio |
| --- | --- |
| CGGGGTAGGT | 0.984 ± 0.027 |
| CGGGGTCCTC | 1.01 ± 0.018 |
| CGGGGTCGTG | 0.9904 ± 0.0035 |
| CGGGGTGAAC | 0.994 ± 0.038 |
| CGGGGTGCCG | 0.98847 ± 0.00081 |
| CGGGGTGCGG | 1 ± 0.056 |
| CGGGGTGGCT | 0.977 ± 0.16 |
| CGGGGTGGTT | 1.01 ± 0.038 |
| CGGGGTTAAG | 0.975 ± 0.025 |
| CGGGGTTCTT | 1.02 ± 0.031 |
| CGGGGTTGAC | 0.9924 ± 0.0098 |
| CGGGGTTGCC | 0.955 ± 0.022 |
| CGGGGTTTAG | 0.992 ± 0.051 |
| CGGGTAAACG | 0.964 ± 0.079 |
| CGGGTAAATA | 1.011 ± 0.0084 |
| CGGGTAAGTC | 0.995 ± 0.01 |
| CGGGTAATCT | 1.5 ± 0.61 |
| CGGGTACCGC | 1.05 ± 0.053 |
| CGGGTACGGT | 0.992 ± 0.022 |
| CGGGTAGAAG | 0.971 ± 0.046 |
| CGGGTAGGCT | 1.02 ± 0.057 |
| CGGGTAGGTG | 1.03 ± 0.058 |
| CGGGTAGTGC | 1.028 ± 0.0078 |

| Sequence | switch fluorescence ratio |
| --- | --- |
| CGGGTAGTTG | 0.995 ± 0.014 |
| CGGGTATGGT | 1 ± 0.027 |
| CGGGTATTGC | 1.03 ± 0.011 |
| CGGGTATTTC | 1.01 ± 0.014 |
| CGGGTCGGCC | 0.997 ± 0.025 |
| CGGGTCGGGA | 0.995 ± 0.041 |
| CGGGTCGTGG | 0.996 ± 0.024 |
| CGGGTCTTGT | 0.98864 ± 0.00032 |
| CGGGTGAGGG | 1.017 ± 0.0065 |
| CGGGTGATCG | 0.96 ± 0.043 |
| CGGGTGGGAT | 1.006 ± 0.0035 |
| CGGGTGGTAT | 0.991 ± 0.023 |
| CGGGTGGTTA | 1.01 ± 0.022 |
| CGGGTGTGTG | 0.981 ± 0.019 |
| CGGGTTAATG | 0.986 ± 0.019 |
| CGGGTTCCGA | 0.998 ± 0.024 |
| CGGGTTCGAG | 0.959 ± 0.001 |
| CGGGTTCTTT | 1.03 ± 0.11 |
| CGGGTTGGAA | 0.9731 ± 0.0091 |
| CGGGTTGGGT | 1.01 ± 0.049 |
| CGGGTTTCAC | 1 ± 0.003 |
| CGGGTTTGCG | 0.992 ± 0.036 |
| CGGGTTTGGT | 1.01 ± 0.011 |

| Sequence | switch fluorescence ratio |
| --- | --- |
| CGGGTTTTGG | 1.01 ± 0.034 |
| CGGGTTTTTC | 0.972 ± 0.028 |
| CGGGTTTTTG | 0.994 ± 0.03 |
| CGGTAACAAA | 1.01 ± 0.019 |
| CGGTACTCGA | 0.993 ± 0.015 |
| CGGTAGCTTG | 1 ± 0.019 |
| CGGTAGGATG | 0.971 ± 0.011 |
| CGGTAGGATT | 1.04 ± 0.014 |
| CGGTAGGTGC | 0.976 ± 0.063 |
| CGGTATATGG | 0.962 ± 0.013 |
| CGGTATGTGA | 0.985 ± 0.041 |
| CGGTATTCTG | 1.01 ± 0.052 |
| CGGTCAAAAA | 1.03 ± 0.033 |
| CGGTCAGTAA | 1.03 ± 0.022 |
| CGGTCATCTT | 0.9991 ± 0.0047 |
| CGGTCCAGTA | 0.912 ± 0.048 |
| CGGTCCCATT | 0.992 ± 0.047 |
| CGGTCCGGTG | 1.04 ± 0.026 |
| CGGTCCTGAA | 1.03 ± 0.002 |
| CGGTCGAGGA | 0.988 ± 0.021 |
| CGGTCGCTGG | 0.991 ± 0.026 |
| CGGTCGTTGT | 1.02 ± 0.03 |
| CGGTGAAAAT | 0.97 ± 0.027 |

| Sequence | switch fluorescence ratio |
| --- | --- |
| CGGTGAATAT | 0.9712 ± 0.0087 |
| CGGTGCACGG | 1.05 ± 0.027 |
| CGGTGGATCA | 0.992 ± 0.017 |
| CGGTGGGATG | 0.9784 ± 0.0072 |
| CGGTGGGCCG | 1.05 ± 0.025 |
| CGGTGGTTTG | 0.996 ± 0.026 |
| CGGTGTAGCC | 1.02 ± 0.014 |
| CGGTGTATTC | 0.988 ± 0.011 |
| CGGTGTGAGG | 0.988 ± 0.031 |
| CGGTGTGCCT | 0.966 ± 0.029 |
| CGGTGTGTGC | 1.04 ± 0.026 |
| CGGTGTTGTG | 0.986 ± 0.024 |
| CGGTTACCTG | 0.9708 ± 0.0074 |
| CGGTTAGTTC | 0.946 ± 0.023 |
| CGGTTATTTA | 1.04 ± 0.011 |
| CGGTTCGCGA | 1.03 ± 0.019 |
| CGGTTCGTGG | 1.004 ± 0.0068 |
| CGGTTGCATT | 1.04 ± 0.031 |
| CGGTTGCGTT | 0.987 ± 0.035 |
| CGGTTGCTAG | 0.997 ± 0.042 |
| CGGTTGGAGC | 0.988 ± 0.042 |
| CGGTTGGGCC | 0.993 ± 0.014 |
| CGGTTGGGGG | 0.962 ± 0.033 |

| Sequence | switch fluorescence ratio |
| --- | --- |
| CGGTTGGGTT | 0.99659 ± 6.3e-05 |
| CGGTTGTCGA | 1.01 ± 0.023 |
| CGGTTGTGCG | 0.969 ± 0.025 |
| CGGTTTATGG | 0.943 ± 0.022 |
| CGGTTTGACA | 0.9954 ± 0.0092 |
| CGGTTTGCGT | 0.9748 ± 0.0029 |
| CGGTTTGTCT | 0.986 ± 0.018 |
| CGGTTTTGCG | 0.985 ± 0.024 |
| CGGTTTTGGG | 0.977 ± 0.012 |
| CGGTTTTTGC | 1.03 ± 0.058 |
| CGGTTTTTTG | 0.964 ± 0.014 |
| CGTAAAGGCC | 0.9465 ± 0.0012 |
| CGTAAAGTAG | 1.01 ± 0.022 |
| CGTAATATTA | 1.07 ± 0.01 |
| CGTACAAAAG | 0.998 ± 0.03 |
| CGTACGGCTC | 1.058 ± 0.0038 |
| CGTACTAGAT | 0.9959 ± 0.0086 |
| CGTACTGGAG | 1.01 ± 0.056 |
| CGTAGAGGAA | 0.994 ± 0.03 |
